The source of these data is patent EP4768039A1, “PHARMACEUTICAL COMPOSITION AND USE THEREOF” (Shanghai Regenelead Therapies Co., Ltd., priority 2023, dated 2025).

Data set [1] addresses Human VEGF-A protein (human) (UniProt P15692). As to the kind of experiment: cell-based or functional assay.
For data set [2] the following is noted: pH range of the buffer system; cited from earlier work.
Data set [3] in a line: Temperature sensitivity of pH of different buffers. The data set is classed as physicochemical. To be noted: buffer working solutions, 2 °C to 30 °C; FIG. 17. The protocol: • 1. About 3 mL of each of different buffers was added to a centrifuge tube. The pH value in the process of cooling from 30 °C to about 2 °C was measured with a pH meter in an ice-water bath and recorded, and then the pH change in the process of heating the solution from 2 °C to 30 °C was recorded. Table 30. Buffering ranges of different buffers

Sequence of UniProt P15692 (P15692 other isoform, or with tags, fused parts or gaps limits assumed): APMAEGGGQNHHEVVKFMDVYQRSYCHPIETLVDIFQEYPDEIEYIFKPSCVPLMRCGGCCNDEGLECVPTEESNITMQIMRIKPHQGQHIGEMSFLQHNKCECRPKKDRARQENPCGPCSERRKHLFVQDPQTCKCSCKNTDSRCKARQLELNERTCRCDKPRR

Take “PR1146(R1D2-R2D3-linker-R2D2(C162V)-R2D3(L289Y)-Fc) (from UniProt P01857 104-330) (Fc fusion)”: in data set [1], the VEGF-A IC50 (nM); VEGF-A-induced NFAT-RE Luc2P KDR reporter cells was 0.98 nM.
Consider `O=S(=O)(O)CCN1CCN(CCO)CC1` [HEPES, N-2-hydroxyethylpiperazine-N'-2-ethanesulfonic acid], for which the Buffering range in data set [2] is 6.8-8.2. The “pH decrease as the temperature increased by 1 °C” value in data set [3] is listed as “about 0.001”.
On to “PR1143(R1D2-R2D3-linker-R2D2(C162V)-R2D3(R275L)-Fc) (from UniProt P01857 104-330) (Fc fusion)”, for which the VEGF-A IC50 (nM); VEGF-A-induced NFAT-RE Luc2P KDR reporter cells in data set [1] was found to be 0.84 nM.
Still for that read-out and setting: the figure for “PR1171(R1D2-R2D3-linker-R2D2(C162V)-R2D3(N274F/S283T)-Fc) (from UniProt P01857 104-330) (Fc fusion)” is 1.09 nM.
As for “PR1010(R1D2-R2D3-linker-R2D2-R2D3-Fc) (from UniProt P01857 104-330) (Fc fusion)”, in data set [1], the VEGF-A IC50 (nM); VEGF-A-induced NFAT-RE Luc2P KDR reporter cells stood at 2.71 nM.
For “PR1114(R1D2-R2D3-linker-R2D2-R2D3(N274I)-Fc) (from UniProt P01857 104-330) (Fc fusion)”, the VEGF-A IC50 (nM); VEGF-A-induced NFAT-RE Luc2P KDR reporter cells in data set [1] was determined as 0.36 nM.
In the case of “PR1124(R1D2-R2D3-linker-R2D2-R2D3(S283T)-Fc) (from UniProt P01857 104-330) (Fc fusion)”, the VEGF-A IC50 (nM); VEGF-A-induced NFAT-RE Luc2P KDR reporter cells in data set [1] was 0.29 nM.
In turn, “PR1126(R1D2-R2D3-linker-R2D2-R2D3(F288Y)-Fc) (from UniProt P01857 104-330) (Fc fusion)” had a VEGF-A IC50 (nM); VEGF-A-induced NFAT-RE Luc2P KDR reporter cells in data set [1] of 0.7 nM.
In turn, “PR1142(R1D2-R2D3-linker-R2D2(C162V)-R2D3(N274I)-Fc) (from UniProt P01857 104-330) (Fc fusion)” had a VEGF-A IC50 (nM); VEGF-A-induced NFAT-RE Luc2P KDR reporter cells in data set [1] of 0.99 nM.
The same measure, in the same setting: to “PR1170(R1D2-R2D3-R2D2(C162V/Y221S/R222K)-R2D3(N274F/S283T)-Fc) (Fc fusion)” belongs 0.89 nM; to “PR1165(R1D2-R2D3-linker-R2D2(C162I)-R2D3-Fc) (from UniProt P01857 104-330) (Fc fusion)”, 0.92 nM.
As to `OCC(CO)(CO)NCCCNC(CO)(CO)CO` [BTP, bis-tris propane], in data set [2], the Buffering range was 6.3-9.5. For the same molecule, the “pH decrease as the temperature increased by 1 °C” value in data set [3] is given as “about 0.024”.
“PR1125(R1D2-R2D3-linker-R2D2-R2D3(E284H)-Fc) (from UniProt P01857 104-330) (Fc fusion)” yielded a VEGF-A IC50 (nM); VEGF-A-induced NFAT-RE Luc2P KDR reporter cells in data set [1] of 0.23 nM.
“PR1149(R1D2-R2D3-linker-R2D2(C162V/Y221S/R222K)-R2D3-Fc) (from UniProt P01857 104-330) (Fc fusion)” gave a VEGF-A IC50 (nM); VEGF-A-induced NFAT-RE Luc2P KDR reporter cells in data set [1] of 0.82 nM.
In data set [1], “PR1169(R1D2-R2D3-R2D2(C162V/Y221S/R222K)-R2D3(S283T)-Fc) (Fc fusion)” yielded a VEGF-A IC50 (nM); VEGF-A-induced NFAT-RE Luc2P KDR reporter cells of 0.9 nM.
In data set [1], “PR1150(R1D2-R2D3-linker-R2D2(C162V)-R2D3(L313R)-Fc) (from UniProt P01857 104-330) (Fc fusion)” showed a VEGF-A IC50 (nM); VEGF-A-induced NFAT-RE Luc2P KDR reporter cells of 0.81 nM.
The same measure, in the same setting: to “PR1168(R1D2-R2D3-R2D2(C162V/Y221S/R222K)-R2D3(N274F)-Fc) (Fc fusion)” belongs 1.15 nM; to “PR1118(R1D2-R2D3-linker-R2D2-R2D3(D276Q)-Fc) (from UniProt P01857 104-330) (Fc fusion)”, 0.22 nM; to “PR1115(R1D2-R2D3-linker-R2D2-R2D3(R275L)-Fc) (from UniProt P01857 104-330) (Fc fusion)”, 0.28 nM.
Turning to “PR1172(R1D2-R2D3-linker-R2D2(C162V/Y221S/R222K)-R2D3(N274F)-Fc) (from UniProt P01857 104-330) (Fc fusion)”, in data set [1], the VEGF-A IC50 (nM); VEGF-A-induced NFAT-RE Luc2P KDR reporter cells is 0.92 nM.
The molecule “PR1120(R1D2-R2D3-linker-R2D2-R2D3(K278D)-Fc) (from UniProt P01857 104-330) (Fc fusion)” came in with a VEGF-A IC50 (nM); VEGF-A-induced NFAT-RE Luc2P KDR reporter cells in data set [1] of 0.38 nM.
For “PR1122(R1D2-R2D3-linker-R2D2-R2D3(K278E)-Fc) (from UniProt P01857 104-330) (Fc fusion)”, the VEGF-A IC50 (nM); VEGF-A-induced NFAT-RE Luc2P KDR reporter cells in data set [1] turned out to be 0.36 nM.
On the same count and under the same terms, the figure for “PR1123(R1D2-R2D3-linker-R2D2-R2D3(Q280E)-Fc) (from UniProt P01857 104-330) (Fc fusion)” is 0.21 nM; for “PR1147(R1D2-R2D3-linker-R2D2(C162V)-R2D3(L313Y)-Fc) (from UniProt P01857 104-330) (Fc fusion)” it is 1.16 nM; for “PR1094(R1D2-R2D3-linker-R2D2(C162V)-R2D3-Fc) (from UniProt P01857 104-330) (Fc fusion)” it is 0.34 nM.
“PR1167(R1D2-R2D3-R2D2(C162V)-R2D3(N274F/S283T)-Fc) (Fc fusion)”: in data set [1], the VEGF-A IC50 (nM); VEGF-A-induced NFAT-RE Luc2P KDR reporter cells stood at 1.1 nM.
As to “PR1129(R1D2-R2D3-linker-R2D2-R2D3(M314S)-Fc) (from UniProt P01857 104-330) (Fc fusion)”, the VEGF-A IC50 (nM); VEGF-A-induced NFAT-RE Luc2P KDR reporter cells in data set [1] is 0.67 nM.
On to “PR1109(R1D2-R2D3-linker-R2D2(V219I)-R2D3-Fc) (from UniProt P01857 104-330) (Fc fusion)”, for which the VEGF-A IC50 (nM); VEGF-A-induced NFAT-RE Luc2P KDR reporter cells in data set [1] is 0.18 nM.
Turning to “PR1148(R1D2-R2D3-linker-R2D2(C162V)-R2D3(L277R/L289Y)-Fc) (from UniProt P01857 104-330) (Fc fusion)”, in data set [1], the VEGF-A IC50 (nM); VEGF-A-induced NFAT-RE Luc2P KDR reporter cells worked out at 1.49 nM.
Still for that read-out and setting: to “PR1119(R1D2-R2D3-linker-R2D2-R2D3(L277R)-Fc) (from UniProt P01857 104-330) (Fc fusion)” belongs 0.14 nM.
On the same count and under the same terms, to “PR1166(R1D2-R2D3-linker-R2D2(C162L)-R2D3-Fc) (from UniProt P01857 104-330) (Fc fusion)” belongs 1.12 nM; to “PR1141(R1D2-R2D3-linker-R2D2(C162V)-R2D3(N274F)-Fc) (from UniProt P01857 104-330) (Fc fusion)”, 1.14 nM.
Consider `NC(CO)(CO)CO` [Tris], for which the Buffering range in data set [2] is on record as 7.0-9.2. Also, the “pH decrease as the temperature increased by 1 °C” value in data set [3] is listed as “about 0.024”.
With “PR1136(R1D2-R2D3-linker-R2D2-R2D3(L313R)-Fc) (from UniProt P01857 104-330) (Fc fusion)”, in data set [1], the VEGF-A IC50 (nM); VEGF-A-induced NFAT-RE Luc2P KDR reporter cells stood at 0.14 nM.
“PR1173(R1D2-R2D3-linker-R2D2(C162V/Y221S/R222K)-R2D3(S283T)-Fc) (from UniProt P01857 104-330) (Fc fusion)” came in with a VEGF-A IC50 (nM); VEGF-A-induced NFAT-RE Luc2P KDR reporter cells in data set [1] of 1.08 nM.
